Reference: article PMC9482650, “Quantitative fragmentomics allow affinity mapping of interactomes” (Nature Communications, 2022)
Values belong to the binder of their own block, whether it stands above or below them.

Assays:
Assay in all cases: holdup assay
Set-up in all cases: key: below the threshold = too weak to quantify, mostly under pKd 3.1 to 4
[1] = target: T1, APBA3_1, O96018
T1 sequence (O96018 389-490, limits assumed, looked up): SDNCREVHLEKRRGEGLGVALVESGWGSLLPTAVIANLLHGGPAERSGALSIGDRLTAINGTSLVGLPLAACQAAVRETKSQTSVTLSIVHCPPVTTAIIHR

[2] = target: DLG2_2, Q15700
[3] = target: DLG2_3, Q15700
[4] = target: DLG4_1, P78352
Chain of DLG4_1, P78352 (P78352 62-152): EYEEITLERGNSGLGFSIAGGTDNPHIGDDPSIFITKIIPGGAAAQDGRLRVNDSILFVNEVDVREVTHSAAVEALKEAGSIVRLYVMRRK

[5] = target: T2, DVL3, Q92997
T2 sequence (Q92997 244-331, limits assumed, looked up): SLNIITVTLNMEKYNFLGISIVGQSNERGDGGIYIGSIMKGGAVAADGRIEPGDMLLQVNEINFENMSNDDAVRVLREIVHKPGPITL

[6] = target: T3, GRIP1_3, Q9Y3R0
T3 sequence (Q9Y3R0 247-346, limits assumed, looked up): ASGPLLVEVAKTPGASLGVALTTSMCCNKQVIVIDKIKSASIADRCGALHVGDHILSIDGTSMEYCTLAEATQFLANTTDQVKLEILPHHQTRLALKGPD

[7] = target: T4, GRIP1_4, Q9Y3R0
T4 sequence (Q9Y3R0 467-571, limits assumed, looked up): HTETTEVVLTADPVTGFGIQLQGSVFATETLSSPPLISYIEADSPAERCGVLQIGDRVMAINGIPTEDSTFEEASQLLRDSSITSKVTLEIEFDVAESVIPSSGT

[8] = target: T5, GRIP1_5, Q9Y3R0
T5 sequence (Q9Y3R0 568-668, limits assumed, looked up): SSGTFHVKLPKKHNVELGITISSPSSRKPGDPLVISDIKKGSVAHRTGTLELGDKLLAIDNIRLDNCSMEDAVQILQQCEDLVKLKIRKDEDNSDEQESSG

[9] = target: GRIP2_4, Q9C0E4
Chain of GRIP2_4, Q9C0E4 (Q9C0E4 446-548): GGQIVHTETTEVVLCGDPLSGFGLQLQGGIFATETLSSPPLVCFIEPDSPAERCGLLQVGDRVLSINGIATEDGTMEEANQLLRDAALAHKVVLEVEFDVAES

[10] = target: GRIP2_5, Q9C0E4
Chain of GRIP2_5, Q9C0E4 (Q9C0E4 544-642): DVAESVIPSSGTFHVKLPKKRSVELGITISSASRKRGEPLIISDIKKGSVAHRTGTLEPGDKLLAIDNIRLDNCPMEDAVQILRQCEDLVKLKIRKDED

[11] = target: IL16_3, Q14005
Chain of IL16_3, Q14005 (Q14005 1107-1207): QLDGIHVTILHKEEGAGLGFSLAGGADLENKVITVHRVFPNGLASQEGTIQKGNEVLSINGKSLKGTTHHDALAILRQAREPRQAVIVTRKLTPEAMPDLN

[12] = target: Inadl_1, Q8NI35
Chain of Inadl_1, Q8NI35 (Q8NI35 113-229): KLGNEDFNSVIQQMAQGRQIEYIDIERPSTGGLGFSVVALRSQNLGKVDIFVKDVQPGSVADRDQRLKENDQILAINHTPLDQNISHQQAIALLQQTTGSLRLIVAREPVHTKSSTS

[13] = target: Inadl_2, Q8NI35
Chain of Inadl_2, Q8NI35 (Q8NI35 238-335): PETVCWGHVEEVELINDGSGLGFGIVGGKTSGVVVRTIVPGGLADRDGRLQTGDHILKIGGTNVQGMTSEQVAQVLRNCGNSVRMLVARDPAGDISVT

[14] = target: Inadl_8, Q8NI35
Chain of Inadl_8, Q8NI35 (Q8NI35 1425-1530): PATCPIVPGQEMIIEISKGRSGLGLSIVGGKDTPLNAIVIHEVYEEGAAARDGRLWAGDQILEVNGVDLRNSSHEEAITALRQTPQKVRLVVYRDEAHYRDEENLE

[15] = target: LAP2, Q96RT1
Chain of LAP2, Q96RT1 (Q96RT1 other isoform, or with tags, fused parts or gaps): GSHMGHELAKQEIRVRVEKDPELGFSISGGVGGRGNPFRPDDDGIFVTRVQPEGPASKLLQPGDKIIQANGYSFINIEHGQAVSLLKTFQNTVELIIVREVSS

[16] = target: T6, LIN7C, Q9NUP9
T6 sequence (Q9NUP9 88-185, limits assumed, looked up): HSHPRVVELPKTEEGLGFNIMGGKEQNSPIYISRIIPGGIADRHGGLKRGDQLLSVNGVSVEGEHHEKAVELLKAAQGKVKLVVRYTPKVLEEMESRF

[17] = target: MAGI1_1, Q96QZ7
Chain of MAGI1_1, Q96QZ7 (Q96QZ7 1-106): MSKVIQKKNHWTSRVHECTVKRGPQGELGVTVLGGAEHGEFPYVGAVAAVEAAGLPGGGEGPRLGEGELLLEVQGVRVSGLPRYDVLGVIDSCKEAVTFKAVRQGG

[18] = target: MAGI3_2, Q5TCQ9
Chain of MAGI3_2, Q5TCQ9 (Q5TCQ9 398-503): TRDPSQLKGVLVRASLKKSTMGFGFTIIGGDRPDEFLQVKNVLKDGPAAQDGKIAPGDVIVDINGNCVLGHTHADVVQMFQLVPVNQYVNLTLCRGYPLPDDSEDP

[19] = target: T7, MPDZ_12, O75970
T7 sequence (O75970 1857-1958, limits assumed, looked up): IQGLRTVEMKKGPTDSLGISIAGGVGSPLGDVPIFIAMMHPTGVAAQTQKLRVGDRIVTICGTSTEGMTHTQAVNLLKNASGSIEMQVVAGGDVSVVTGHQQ

[20] = target: T8, MPDZ_5, O75970
T8 sequence (O75970 695-796, limits assumed, looked up): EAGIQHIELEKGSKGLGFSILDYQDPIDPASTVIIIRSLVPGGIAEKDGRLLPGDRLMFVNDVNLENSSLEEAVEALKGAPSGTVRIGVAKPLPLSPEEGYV

[21] = target: NHERF2_2, Q15599
Chain of NHERF2_2, Q15599 (Q15599 142-238): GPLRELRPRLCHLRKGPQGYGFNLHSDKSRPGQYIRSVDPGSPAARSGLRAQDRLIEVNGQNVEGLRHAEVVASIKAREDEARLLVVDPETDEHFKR

[22] = target: T9, NHERF3_1, Q5T2W1
T9 sequence (Q5T2W1 4-100, limits assumed, looked up): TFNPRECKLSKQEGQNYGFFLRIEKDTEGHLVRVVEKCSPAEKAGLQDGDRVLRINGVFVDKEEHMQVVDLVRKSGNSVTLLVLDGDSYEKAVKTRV

[23] = target: PDLIM1, O00151
Chain of PDLIM1, O00151 (O00151 1-87): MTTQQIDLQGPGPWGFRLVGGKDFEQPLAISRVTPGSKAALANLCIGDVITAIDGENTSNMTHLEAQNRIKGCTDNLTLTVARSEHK

[24] = target: SCRIB_2, Q14160
Chain of SCRIB_2, Q14160 (Q14160 857-960): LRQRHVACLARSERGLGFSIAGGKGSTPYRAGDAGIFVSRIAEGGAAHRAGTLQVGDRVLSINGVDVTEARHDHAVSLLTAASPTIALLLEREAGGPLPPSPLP

[25] = target: T10, SIPA1L2, Q9P2F8
T10 sequence (Q9P2F8 945-1036, limits assumed, looked up): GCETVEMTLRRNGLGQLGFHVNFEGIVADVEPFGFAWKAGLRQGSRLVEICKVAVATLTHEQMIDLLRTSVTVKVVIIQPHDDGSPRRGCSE

[26] = target: T11, TIAM2, Q8IVF5
T11 sequence (Q8IVF5 885-986, limits assumed, looked up): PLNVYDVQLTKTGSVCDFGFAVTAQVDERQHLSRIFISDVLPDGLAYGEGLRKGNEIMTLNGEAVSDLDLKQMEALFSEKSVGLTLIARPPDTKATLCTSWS

[27] = plain residues with an end cap or a label only (N-terminal biotin on a linker: ttds)
[28] = plain residues with an end cap or a label only (N-terminal biotin on a linker: ado-ado)
[29] = plain residues with an end cap or a label only (N-terminal biotin on a linker: ahx)

pKd [1, 27]: below the threshold
pKd [2, 27]: 4.25
pKd [3, 27]: 4.21
pKd [4, 27]: below the threshold
pKd [5, 27]: below the threshold
pKd [6, 27]: below the threshold
pKd [7, 27]: below the threshold
pKd [8, 27]: below the threshold
pKd [9, 27]: below the threshold
pKd [10, 27]: below the threshold
pKd [11, 27]: below the threshold
pKd [12, 27]: below the threshold
pKd [13, 27]: below the threshold
pKd [14, 27]: below the threshold
pKd [15, 27]: below the threshold
pKd [16, 27]: below the threshold
pKd [17, 27]: below the threshold
pKd [18, 27]: 4.17
pKd [19, 27]: below the threshold
pKd [20, 27]: below the threshold
pKd [21, 27]: 4.09
pKd [22, 27]: 5.56
pKd [23, 27]: below the threshold
pKd [24, 27]: 3.65
pKd [25, 27]: below the threshold
pKd [26, 27]: below the threshold
Binder: GARVSKETPL [MAPK12, P53778]

pKd [1, 28]: below the threshold
pKd [2, 28]: 4.71
pKd [3, 28]: 3.96
pKd [4, 28]: 4.61
pKd [5, 28]: below the threshold
pKd [6, 28]: below the threshold
pKd [7, 28]: below the threshold
pKd [8, 28]: below the threshold
pKd [9, 28]: below the threshold
pKd [10, 28]: below the threshold
pKd [11, 28]: below the threshold
pKd [12, 28]: below the threshold
pKd [13, 28]: below the threshold
pKd [14, 28]: below the threshold
pKd [15, 28]: 4.56
pKd [16, 28]: 4.57
pKd [17, 28]: below the threshold
pKd [18, 28]: 4.56
pKd [19, 28]: below the threshold
pKd [20, 28]: below the threshold
pKd [21, 28]: 4.12
pKd [22, 28]: 4.75
pKd [23, 28]: below the threshold
pKd [24, 28]: 4.83
pKd [25, 28]: below the threshold
pKd [26, 28]: below the threshold
Binder: IGHEDLETAV [DGKI, O75912]

pKd [1, 27]: below the threshold
pKd [2, 27]: below the threshold
pKd [3, 27]: below the threshold
pKd [4, 27]: below the threshold
pKd [5, 27]: below the threshold
pKd [6, 27]: below the threshold
pKd [7, 27]: below the threshold
pKd [8, 27]: below the threshold
pKd [9, 27]: below the threshold
pKd [10, 27]: below the threshold
pKd [11, 27]: below the threshold
pKd [12, 27]: below the threshold
pKd [13, 27]: below the threshold
pKd [14, 27]: below the threshold
pKd [15, 27]: below the threshold
pKd [16, 27]: below the threshold
pKd [17, 27]: below the threshold
pKd [18, 27]: below the threshold
pKd [19, 27]: below the threshold
pKd [20, 27]: below the threshold
pKd [21, 27]: 5.39
pKd [22, 27]: 4.5
pKd [23, 27]: 3.52
pKd [24, 27]: below the threshold
pKd [25, 27]: below the threshold
pKd [26, 27]: below the threshold
Binder: DLDEEEDTHL [PODXL, O00592]

pKd [1, 29]: below the threshold
pKd [2, 29]: 3.88
pKd [3, 29]: 4.44
pKd [4, 29]: 4.21
pKd [5, 29]: below the threshold
pKd [6, 29]: below the threshold
pKd [7, 29]: below the threshold
pKd [8, 29]: below the threshold
pKd [9, 29]: below the threshold
pKd [10, 29]: below the threshold
pKd [11, 29]: below the threshold
pKd [12, 29]: below the threshold
pKd [13, 29]: below the threshold
pKd [14, 29]: 3.88
pKd [15, 29]: below the threshold
pKd [16, 29]: below the threshold
pKd [17, 29]: below the threshold
pKd [18, 29]: 3.59
pKd [19, 29]: below the threshold
pKd [20, 29]: below the threshold
pKd [21, 29]: below the threshold
pKd [22, 29]: below the threshold
pKd [23, 29]: 3.72
pKd [24, 29]: 3.95
pKd [25, 29]: below the threshold
pKd [26, 29]: below the threshold
Binder: HSATSVHTSV [MTMR1, Q13613]

pKd [1, 28]: below the threshold
pKd [2, 28]: below the threshold
pKd [3, 28]: below the threshold
pKd [4, 28]: 3.66
pKd [5, 28]: below the threshold
pKd [6, 28]: below the threshold
pKd [7, 28]: below the threshold
pKd [8, 28]: below the threshold
pKd [9, 28]: below the threshold
pKd [10, 28]: below the threshold
pKd [11, 28]: below the threshold
pKd [12, 28]: below the threshold
pKd [13, 28]: below the threshold
pKd [14, 28]: 4.43
pKd [15, 28]: below the threshold
pKd [16, 28]: below the threshold
pKd [17, 28]: 3.49
pKd [18, 28]: 4.44
pKd [19, 28]: below the threshold
pKd [20, 28]: below the threshold
pKd [21, 28]: below the threshold
pKd [22, 28]: below the threshold
pKd [23, 28]: below the threshold
pKd [24, 28]: below the threshold
pKd [25, 28]: below the threshold
pKd [26, 28]: below the threshold
Binder: SQDPKKPSRV [CBY2, Q8NA61]
